Consider one molecule from article PMC7093963, “DDX39B interacts with the pattern recognition receptor pathway to inhibit NF-κB and sensitize to alkylating chemotherapy”.

This series concerns the target His-DDX39B (UniProt Q13838 1-428). In words: EMSA; 0-300 ng protein; bound more than -1A; EMSA: bacterially expressed DDX39B, 32P probes, non-denaturing 5% acrylamide gel; binding buffer, salt, pH and temperature not given. Pull-down: U87 nuclear extract pre-cleared with non-specific biotin DNA, 2 h with probe. The settings on record: protein: recombinant; tags: N-terminal His (pET-45b, 5' polyhistidine); label: 32P (T4 PNK); blunt.

Sequence of His-DDX39B (Q13838 whole entry): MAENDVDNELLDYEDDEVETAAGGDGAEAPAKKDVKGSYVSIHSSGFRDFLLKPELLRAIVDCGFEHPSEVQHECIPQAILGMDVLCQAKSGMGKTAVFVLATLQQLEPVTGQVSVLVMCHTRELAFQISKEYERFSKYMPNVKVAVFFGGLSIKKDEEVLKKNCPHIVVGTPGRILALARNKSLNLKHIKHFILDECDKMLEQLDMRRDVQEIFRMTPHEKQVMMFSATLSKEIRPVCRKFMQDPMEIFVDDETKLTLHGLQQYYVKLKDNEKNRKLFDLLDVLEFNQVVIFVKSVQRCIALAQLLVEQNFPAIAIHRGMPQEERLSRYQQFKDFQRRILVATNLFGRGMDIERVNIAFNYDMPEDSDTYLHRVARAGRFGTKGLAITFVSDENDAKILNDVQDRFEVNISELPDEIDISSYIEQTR

B1: -1C kB probe (dsDNA)
DNA 1: TCGAGTTAGATGGGGACTTTCCAGGCAC
DNA 2: GTGCCTGGAAAGTCCCCATCTAACTCGA
With B1, the binding result was “binds”.
